From the domain aggregation screens of Martell et al. (2025)

Test: soluble fraction after stress (log2 fold change); higher = more stays soluble; pooled small domains, quantitative proteomics
Details: stress: 75 degC
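Further: 20 min heating vs room temperature control held 20 min.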

| Sequence | soluble fraction (log2) |
| --- | --- |
| HMRTITYSITPAHAGMSVERYLKQQHGYSTRTLVKLKHYPQGLQLNGQHARTVDLLQAGDTLAVTFLD | -2.42 |
| HMRTLSAGVAGRLRADILNGLLEPGRRLGMAELTERYGAGMSPVREALSRLVGEGLVQSEGQRGFRVA | -0.446 |
| HMRTMFGQRLRLARKRAGLSMQALADRVTPSVSAQAISKYEADQMMPSSSVLVGLGKALGVSLDFLVGGQ | -1.41 |
| HMRTNVDISPKILEWVLSQVRNRTTNDVIETIQIWIKGEKPPTFNQVEKISKATGVPLGYFFLKTPPVED | -1.34 |
| HMRTPLTGREEQVATLIGRGMTNSEIAESLSVDESTVKTHIGSILRKVHLRDRLQVALWFHGLPIE | -0.67 |
| HMRTTYKTRLETLLAGPMSAGDRRFASSLLDFYNRKNRLTPGRARFVAQLEDRYSAEALAARQG | -1.19 |
| HMRTVEQFQIRKIYAISNALGISDSRADEDELHVLVSGLTGKDSIKELTYREASVVIERLEELQ | -2.22 |
| HMRVDDITDTILNVLKEQGGFISVTDKSSPETINKLFGVSKKTYKKAIGAIYRKKLIIIEDDGIRLNS | -2.4 |
| HMRVDRSALDSIPGVGPGRKRTLLHHFGSARAVEASGLADLESIRGISKALARKIYDFFHPE | -1.55 |
| HMRVELVVVPELRQQLLPEARELANSAGLQLRVRGQSPADETRTIVVTQSPAAGTRVAARSIVLVE | -1.12 |
| HMRVPTVIGMDEGTAKATLANASLKSNIVYESDETKENGKVLSQGIEQNKEVKAGTTVEIKVNKIE | 0.116 |
| HMRVTEVSYDKFLDMLSGGQVTVVELQENERELYFKAADENGAERIYSTGVFPDADLQKRLSESGVTF | -0.14 |
| HMRYLHTMIRVSDLEESLNFFKLLDIHEVSRKENEQARFTLVFLSATGDEKLVENAKSPLIELTFN | -0.0509 |
| HMRYLMPDLVNRRYEPVRSLLEARGIRFGNVIFEPYEGLPPGIVLRQDPPAGHPLPRRRTVSLVVSGPGGR | -2.56 |
| HMRYQIAEARKLRDITQAELAEKMGTTQQTIQRYETNQVNIRMDKMIEMSEILNVSLAYLLGMSSSPEL | -1.78 |
| HMRYVVQVATFSSKNNAIRAADDLAGFVVVSNGYYRVRTGPYADRGEANAALAKARKAGYTDAFVDTS | -2.19 |
| HMSAAYVYVTGTRVNQRDGPSTFDRVMGVLVEGTRVQLLRDQGQWAQIRSDLGTGWLSSGFLSRNG | -1.88 |
| HMSADKAEAAEASLKSFNLRLQAAAMEAGKTFAPVTADQYAEYKAAWGTYIRKGIEGLSESEKKTINVG | -0.243 |
| HMSAETREELVGREGVSLTDLRPSGFALFGQEKIDVVSESEFIEEGTSVRIVSVEGSRHIVRAKR | -0.0724 |
| HMSAISSARKEKIIEYLTDHGSARSSEIAEYVDLRPSRVRDYLGELVREDIVVAEGANRNRTYRLK | -0.0533 |
| HMSAPGYRAVYPGMLESERQTAYELLSSSGFDVKINTSSGELEVTTDRYHEARMVMASQNIPK | -0.137 |
| HMSAPVFRITPAGVVVNGLKRSDILTLTRIDGAMNTLPHNAGEVLVSTEGLAKGVYVITAGGKSLKFLV | -1.85 |
| HMSAQPMEYSRFYSDVTQGRVAEVEIEGREINGRLSTGERFKTFSPETDNKALIGHLLDNGVVIEGKPP | 0.255 |
| HMSASEKLFEARKNLNIVNVLGKNPVDRYDIVKILKHGDHYHIYDSKGNEGITYTNPKSLYPEAEFGEYQG | -0.0642 |
| HMSASTGTVSYKSGATTVWNSPSWHQVKRYVTFGDTVQLLGKTVDQNGATWYKVGDNQWIPELYLNVAG | -0.725 |
| HMSATEPVHFDPNKSPEDMTVEELQAGILAKMANNGPVSDQMKKTVNENIWHDSLVNWLKSF | -0.164 |

| Sequence | soluble fraction (log2) |
| --- | --- |
| HMSATPQRMSIINELDSARKNLSAYDLRDSLKDKGHSFNISTIYRVLSFWIDVGVVHKMDSSNTYL | -0.111 |
| HMSATVLVHVLGEVRKPGVVSLPEGSRVQDAITAAGGLTSRAKPGDLNLAARVSDGAQLVIGRSGSQVRTT | -0.306 |
| HMSAVVAPLPGLIQNILVKVGDTVHAGQHVLTMEAMKMENEIQTNRDGIIKDIKVRIGDSVNEGDTLIIL | 0.0725 |
| HMSDAGAIEPTIKEILASNPKAVEEYLAGNIKNINALIGQSMKALHGKADPQTVRNLLAKLLDEM | -0.252 |
| HMSDAIQLEQKIGLEAIEWYLALSEQTDDKLLYQQWQSWLAADPQHQLAWSRIEQVNHGLNTL | -1.03 |
| HMSDAVQLGLRLRAARERRGLSQQAVADALGLPRTAVTNMESGNRAVSTLELTKLAALYGQSTAFFLSP | -1.19 |
| HMSDDVELLGRLSDREVSVLQYLSQGYSNKQISEQMFISNKTVSTYKARLLLKLNAGSLVDLIEFAKRNTL | -1.35 |
| HMSDEINYVIQINGKNRAEAEFGANLDKESIENLALEHERIKELLNGLTVRKIIVVPKKLVNIVA | -0.556 |
| HMSDESALLELVKQIIADNPKAVEEIRAGKEKAMGFLIGQAMKASRGSANPQIISRLVREQLG | 0.57 |
| HMSDFDPTLILDLIKGSGEALTKREIARALGIKGGDKRIELKSHLKSMEAEGVIVKQAGGAYSVP | -0.132 |
| HMSDFSNLNLLELNSSELDLLLRRASSQGLTQMDLLKMARSQGLSEADLIKVKGKIDTSESIKR | 0.076 |
| HMSDFSSNLRRLRKRAGLSQDALAEKLSVARQTVSSWERGNSYPDLDMLVRISDALATDPNELLYPN | -0.167 |
| HMSDGDFLQKIAEEILAQFPDKVKEYQKGKKGLIGFFMGELMKRSKGKADPKVATRILEEILSEKNGSS | -0.0745 |
| HMSDGTVYGSDGVIKVNLPQSGMLRIYATDGTTLVNRWQAAGIDTISMPRGLYIVRFDNQVWKVVV | -1.65 |
| HMSDHSSLAGKEGVAVTPLRPAGTAEIDGKRMDVVTMGDYIKAGDHIKVVKVEGNRIIVAKN | 0.0173 |
| HMSDHYEVLGVDRNATDDQIKKAYRRLARELHPDVNDAPESQEKFKLVTHAYEVLSDPDERRKYDMG | -0.0229 |
| HMSDIYSLFERELGRTLSSYEYEIIGKWIEKGVSEDTIKRALKEAILNGVTNFKYIDKIIYDWSKN | -0.622 |
| HMSDLFKYSPYKTLTEEQYKITYQIIERLKTDLSNGIPRISIIDGGAGTGKSILGIFLLKLLVDAQN | 0.353 |
| HMSDNLSASERKALSHMEGMESVRSSEVADLLGMSQRGAQKLLNRLVDKGLASSFGANRNRRYSVE | 0.144 |
| HMSDNLTIVRAVYSGLSQRQAAATYHVSRNTVSLLLRHARNRGWLTLEDLAQLDNAAFSKSL | -4.32 |
| HMSDPFSPTTTLKNRAKSVLSVDSFEDFKLFIKKMWQEKKEGVYQNPNVETWKDWDNISVKDAKILISLI | -1.45 |
| HMSDPHEELMSRIARDLSIPLTRVVAEMNTIISKEFGGHIRPEGAVVILAKRSGVEFSDLLPALRENILK | -1.92 |
| HMSDQIQQIAERIAGLRDIAGYSVEELARELGISAEEYKRYESGEVDIPIGFLYKLANKYNVELTAILT | -0.289 |
| HMSDRFLDQEGVALSTLRPSGTVVLDSGEHLDVVTRGEFIEQGERVKVIKAESTWYVVEQIN | 0.112 |
| HMSDRLRLGRRIRAARLEQNLSQAALAERLGISASYLNLLEHDRRSLTTVLLLKLAQVLGLELRDLAAG | -2.49 |
| HMSDRLRPGDMVVVVGKKKRYPVFSAFDIDFVEAGDVGKVLTVKREEVVVGFPKKGEGTFTPSELNIAH | -1.18 |

| Sequence | soluble fraction (log2) |
| --- | --- |
| HMSDTGQELHDALNMARRTLTILEEQAAGYTALTIPARLVLELEEKRKDVVRLETQIRSAATGTPG | -0.649 |
| HMSDTLPRLLWNFQMAKRLDEMNGAEKRRYQLVLIHPQASEKERDYASSFAHQARMLGIEVAIRDS | -0.395 |
| HMSDVVFRINANGLNVSGLANGERVSVYDTTGKLVTTAVSTQDNGTLNLPLKQSGGIYIARTQSGVSFKFT | -0.786 |
| HMSDYKSYLQELVQTDKKSLSYNVVKETGPAHDKTFEVEVEVDGIIYAHGVGKSKKEAEQNAAKNAIMISA | 0.3 |
| HMSDYLGSLSHEEKMIFNHFDEDSSTIENMAKKTELKPELISQIFLNLELRGFLRQTEGGLYEKI | -0.43 |
| HMSDYYEVLGVTRQADAEEIKRAYRRKARQLHPDVAGPGHEEEFKEVTVAYEVLSDPEKRQAYDLGGQDAL | 0.0155 |
| HMSEDAVKFRAAVEVENGLAQRNLNKNQAALILGVDRSYFTYIISGKKTPSPDMAKRIGLLLGFDWRVFYA | -1.89 |
| HMSEEIKVPNFVGSTFEKAQALAQETGLEIARGEDVYSPDQEEGKITSQNPTADSVVSPGKLITVYVSKG | 0.385 |
| HMSEIKDRLREARRNKGLSQAGLSKLLGVSQASIAAIESGRNKRPTNLVSIAKALDVSPYWLETGK | -0.229 |
| HMSEITQTLSMIGKEVTLEIPDEKDKTKTTEVKGIVTEASFKDGTGKVKVNGEYYSIAYITSIRDT | ≥ 1.04 |
| HMSEIVEEQNTKLKQAVSKLSKRQQEVLYLKFEEGLDYEQISKIMDLKYQSVRNLVSTAIIKIKEH | -2.72 |
| HMSEKELTDLIERIKERRLKLEMSYQDLSDATGISKSTLQRYETGYIKKVPINQIEILAKALHTTPSYLMG | -0.411 |
| HMSEKIDINNSNELELKQLPLTNEQIKSLIEFRRLHGEIQNIYELKNIDFFNIEKVHELKAHIEIKKII | -1.03 |
| HMSELADDPVYTALEKAADKAGLQLTVRILNDLADAVLKRGKKKLTAAQAGKVIARAESELAKSRID | 0.00292 |
| HMSELDASYLGQRVRYVSGFTETDPSEGLVEFRGSNWRARAEHPPLDHSGHWVIVKVESNTLWVEEKSN | -1.57 |
| HMSENEIDELRRRFAREAMALMERKGEEVSRTRLAAELSVARARIDAVFPEESDLLEAVTAEWFA | -0.477 |
| HMSENEVQAKVKEIVDRYAGDKSALIAILQDVQDEYRYLPKEALVSIQQQMNIPLSRVYEVATFYDAFS | -0.556 |
| HMSEPIYTQLKEILTQKIVNGEFPPGARLPSEYELTELYHISRSTVRLALKELEASGMIVRRRGKGTFVSS | -2.39 |
| HMSEPRYRQLATILAQEIRSNHSAGDQLPSEQALAKRFEVNRHTVRRAVDELVAAGMVTRHQGWGTQVV | -0.158 |
| HMSEQGVITAKFASIVGNQNIQLVMFPDSVYLKGQVSSEEEKKRAETVASSLIQDRKIVNLIEFE | -0.075 |
| HMSEQIALQFAKAKQHHTGIALKGIEALELRYKGYTGKEIAALYHTSPKSVFSWISRAKQKLRQN | -0.272 |
| HMSEQLHALIDRLDDIPDDELKKNWPGTLRDLVDVISAELHRQGIEPAQAGMLARKVAAAQAGYMG | -0.486 |
| HMSEQLKQIAERIKELRNIAGLGEEELAAKLDIPVDTYREYESGNVDIPVSFLYKISGMFNVELTAIL | -1.1 |
| HMSEQLVGTVGHITVGTARTASPAEAKFLDAFEQPHYLLVEPIEPKDIFQQGDKVVLVKKQHHSWLATRYI | -1.2 |
| HMSEQTLEDVRRLIEHLPESQKEVVKMRYYQDLSFKEIADLKGISINTALGRMHYAINNMRKMAKEYGL | -1.94 |
